Kd, koff and kon data for 13 molecules are collected here from patent publication US7329737 (DYAX, dated 2008).

For the test, the target named is T1, hK1 (human tissue kallikrein 1), recombinant (human, UniProt P06870 25-262).
T1 construct: Expressed in P. pastoris from KLK1 cDNA and purified; enzymatically active; also called KLK1; Recombinant (Pichia) Kallikrein
Kind of test: SPR.

B1: M0104-A12 (Fab, V domains shown)
VH: EVQLLESGGGLVQPGGSLRLSCAASGFTFSHYNMGWVRQAPGKGLEWVSRIGSSGGKTAYADSVKGRFTISRDNSKNTLYLQMNSLRAEDTAVYYCAKTNYDFWSGYLPNPNPYPLDYWGQGTLVTVSS
VL: DIQMTQSPSSLSASVGDRVTITCRASQSIGASLNWYQQKPQKAPKLLIYTASNLQSGVPSRFSGSGSGTDFTLTISSLLPEDFATYYCQQNYRGRTFGQGTKLEIKR
As a reminder, the Kd is the concentration at which binding is half-saturated. Usually koff stands for a measure of how fast the partners let go of each other. In general, kon refers to a measure of how fast the partners come together. As for B1, the Kd came out at 3.66 nM, the koff came to 0.00246 s⁻¹ and the kon was 673000 M⁻¹ s⁻¹.

B2: M0138-C04 (Fab, V domains shown)
VH: EVQLLESGGGLVQPGGSLRLSCAASGFTFSHYHMQWVRQAPGKGLEWVSGIRSSGGVTGYSDSVKGRFTISRDNSKNTLYLQMNSLRAEDTAVYYCAREVTMVRGVYYYYYGMDVWGQGTTVTVSS
VL: AQYELTQPASVSGSPGQSITISCTGTSSDVGAYNYVSWYQHHPGKAPKLLIYDVSNRPSGISSRFSGSKSGNTASLTISGLQAEDEADYYCSSYTSSYTWVFGGGTKLTVLS
On to B2, for which the Kd turned out to be 4.26 nM, the koff stood at 0.000728 s⁻¹ and the kon stood at 171000 M⁻¹ s⁻¹.

B3: M0132-D08 (Fab, V domains shown)
VH: EVQLLESGGGLVQPGGSLRLSCAASGFTFSHYLMYWVRQAPGKGLEWVSWIGPSGGHTMYADSVKGRFTISRDNSKNTLYLQMNSLRAEDTAVYYCARLQQGLDYWGQGTLVTVSS
VL: DIQMTQSPSTLSASVGDRVTITCRASQSISNWLAWYQQKPGKAPKLLIYMASTLESGVPSRFSGSGSGTEFTLTISSLQPADFATYYCQQYNSYSVTFGGGTKVEIKR
Regarding B3, the Kd turned out to be 4.73 nM, the koff was determined as 0.000923 s⁻¹ and the kon came to 195000 M⁻¹ s⁻¹.

B4: M0135-C12 (Fab, V domains shown)
VH: EVQLLESGGGLVQPGGSLRLSCAASGFTFSRYHMSWVRQAPGKGLEWVSSIRPSGGSTIYADSVKGRFTISRDNSKNTLYLQMNSLRAEDTAVYYCAREPRRYYYDSSGSYDAFDIWGQGTMVTVSS
VL: AQSELTQPPSMSGTPGQRVIISCSGSNSNIGNNFVYWYQQVAGSAPKLLIFRNNQRPSGVPDRFTVSKSGASASLAIGGLRSEDEADYYCAAWDDSLSGVLFGGGTKVTVLG
For the molecule B4, the dissociation constant Kd turned out to be 3.1 nM, the koff stood at 0.000376 s⁻¹ and the kon came to 121000 M⁻¹ s⁻¹.

B5: M0132-D02 (Fab, V domains shown)
VH: EVQLLESGGGLVQPGGSLRLSCAASGFTFSHYPMDWVRQAPGKGLEWVSYIGPSGGSTRYADSVKGRFTISRDNSKNTLYLQMNSLRAEDTAVYYCARHVPPGTWGQGTLVTVSS
VL: AQSALTQPRSVSGSPGQSVTISCTGTSSDVNYVSWYQQHPGKAPKLMIYAVTKRPSGVPDRFSGSKSGNTASLTVSGLQAEDEADYYCSSYAGSNNLVFGGGTKLTVLG
In the case of B5, the Kd was found to be 4.22 nM, the koff amounted to 0.00303 s⁻¹ and the kon turned out to be 717000 M⁻¹ s⁻¹.

B6: M0138-B10 (Fab, V domains shown)
VH: EVQLLESGGGLVQPGGSLRLSCAASGFTFSHYSMTWVRQAPGKGLEWVSRIYPSGGRTGYADSVKGRFTISRDNSKNTLYLQMNSLRAEDTAVYYCATDSGGYYYGMDVWGQGTTVTVSS
VL: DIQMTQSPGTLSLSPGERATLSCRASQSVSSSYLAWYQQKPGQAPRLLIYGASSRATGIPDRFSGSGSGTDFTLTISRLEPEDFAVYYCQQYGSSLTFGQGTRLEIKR
With B6, the Kd is 3.36 nM, the koff worked out at 0.00089 s⁻¹ and the kon was 265000 M⁻¹ s⁻¹.

B7: M0094-E08 (Fab, V domains shown)
VH: EVQLLESGGGLVQPGGSLRLSCAASGFTFSFYAMVWVRQAPGKGLEWVSYISPSGGATWYADSVKGRFTISRDNSKNTLYLQMNSLRAEDTAVYYCAKPSRPRYYYDSSGYYSSAFDIWGQGTMVTVSS
VL: AQSVLTQPASVSGSPGQSITISCTGTSSDVGAYNYVSWYQQHPGKVPELMIYDVSNRPSGVSHRFSGSKSGNTASLTISGLQAEDDADYYCSSFTSRKTWVFGTGTKVTVLG
As to B7, the Kd was 3.34 nM, the koff amounted to 0.00053 s⁻¹ and the kon was found to be 159000 M⁻¹ s⁻¹.

B8: M0097-F04 (Fab, V domains shown)
VH: EVQLLESGGGLVQPGGSLRLSCAASGFTFSPYQMWWVRQAPGKGLEWVSSISSSGGLTRYADSVKGRFTISRDNSKNTLYLQMNSLRAEDMAVYYCARVKLNYYGSGSYSLDAFDIWGQGTNGHRLKRLHQGPIGLPASTLLQEH
VL: AQYELTQPPSASGTPGQRVTISCSGSSSNIGSNYVHWYQQLPGTAPKLLIYRNNRRPSGVPDRFSGSKSGTSASLAISGLRSEDEADYYCAAWDDSLSGLVVFGGGTKLTVLGQPKAAP
In the case of B8, the Kd worked out at 3.26 nM, the koff was 0.000346 s⁻¹ and the kon amounted to 106000 M⁻¹ s⁻¹.

B9: M0132-H11 (Fab, V domains shown)
VH: EVQLLESGGGLVQPGGSLRLSCAASGFTFSHYQMHWVRQAPGKGLEWVSRIRSSGGATSYADSVKGRFTISRDNSKNTLYLQMNSLRAEDTAVYYCARGGGYSYYFDYWGQGTLVTVSS
VL: AQYELTQPPSASGTPGQRVTISCSGSSSNIGSNYVYWYQQLPGTAPKLLIYRNNQRPSGVPDRFSGSKSGTSASLAISGLRSEDEADYYCAAWDDSLSGHAVFGGGTQLTVLG
B9: the Kd was found to be 4.5 nM, the koff amounted to 0.00198 s⁻¹ and the kon was 440000 M⁻¹ s⁻¹.

B10: M0104-H12 (Fab, V domains shown)
VH: EVQLLESGGGLVQPGGSLRLSCAASGFTFSYYQMSWVRQAPGKGLEWVSRIGPSGGLTSYADSVKGRFTISRDNSKNTLYLQMNSLRAEDTAVYYCARVGVWYGMDVWGQGTLVTVSS
VL: AQSELTQPPSASGSPGQSVTISCTGTSSDVGAYNYVSWYQQHPGKAPKLIIYEVNKRPSGVPDRFSASKSGNTASLTVSGLQAEDEADYYCNSYAGSNSLIFGGGTKLTVLG
With B10, the Kd worked out at 2.43 nM, the off-rate (koff) came out at 0.00138 s⁻¹ and the kon came to 567000 M⁻¹ s⁻¹.

B11: M0139-F09 (Fab, V domains shown)
VH: EVQLLESGGGLVQPGGSLRLSCAASGFTFSHYVMAWVRQAPGKGLEWVSRIGPSGGYTMYADSVKGRFTISRDNSKNTLYLQMNSLRAEDTAVYYCARVGVWYGMDVWGQGTTVTVSS
VL: DIQMTQSPGTLSLSPGERATLSCRASQSVSSSYLAWYQQKPGQAPRLLIYGASSRATGIPDRFSGSGSGTDFTLTISSLQLEDFGTYFCQQSYRSPYTFGQGTKVDIKR
Turning to B11, the Kd was 3.6 nM, the koff worked out at 0.00108 s⁻¹ and the on-rate (kon) came to 301000 M⁻¹ s⁻¹.

B12: M0135-F03 (Fab, V domains shown)
VH: EVQLLESGGGLVQPGGSLRLSCAASGFTFSHYVMIWVRQAPGKGLEWVSWIYPSGGNTIYADSVKGRFTISRDNSKNTLYLQMNSLRAEDTATYYCARVGVWYGMDVWGQGTTVTVSS
VL: DIQMTQSPATLSLSPGERATLSCRASQSVSSYLAWYQQKPGQAPRLLIYDASNRATGIPARFSGSGSGTDFTLTISSLEPEDFAVYYCQQRSNWPSPIAFGQGTRLEIKR
As to B12, the Kd was found to be 2.66 nM, the koff worked out at 0.000625 s⁻¹ and the kon was determined as 235000 M⁻¹ s⁻¹.

B13: M0111-C10 (Fab, V domains shown)
VH: EVQLLESGGGLVQPGGSLRLSCAASGFTFSRYVMSWVRQAPGKGLEWVSSIRSSGGRTMYADSVKGRFTISRDNSKNTLYLQMNSLRAEDTAVYYCARVGVWYGMDVWGQGTTVTVSS
VL: DIQMTQSPSSLSASVGDRVTITCRASQSISSYLNWYQQKPEKAPQLLIFAASSLQSGVPSRFSGSGSGTDFTLTISSLQPEDFATYYCQQSYNAPWTFGQGTKVEIRR
Regarding B13, the Kd was determined as 3.29 nM, the koff was 0.00341 s⁻¹ and the kon was determined as 1.04e+06 M⁻¹ s⁻¹.
